Measured values from publication doi:10.1101/545921 (bioRxiv, 2019).

B1: Glycolytic glyceraldehyde-3-phosphate dehydrogenase of Arabidopsis thaliana (AtGAPC1), native / reduced (enzyme, UniProt P25858 1-338, looked up)
chain: MADKKIRIGINGFGRIGRLVARVVLQRDDVELVAVNDPFITTEYMTYMFKYDSVHGQWKHNELKIKDEKTLLFGEKPVTVFGIRNPEDIPWAEAGADYVVESTGVFTDKDKAAAHLKGGAKKVVISAPSKDAPMFVVGVNEHEYKSDLDIVSNASCTTNCLAPLAKVINDRFGIVEGLMTTVHSITATQKTVDGPSMKDWRGGRAASFNIIPSSTGAAKAVGKVLPALNGKLTGMSFRVPTVDVSVVDLTVRLEKAATYDEIKKAIKEESEGKLKGILGYTEDDVVSTDFVGDNRSSIFDAKAGIALSDKFVKLVSWYDNEWGYSSRVVDLIVHMSKA
B2: IAM-pretreated AtGAPC1 WT (WT-IAM) (enzyme, Arabidopsis thaliana, UniProt P25858 1-338, looked up)
chain: B1 chain
modifications: Cys149 alkylated by iodoacetamide (IAM)
B3: H2O2-oxidized AtGAPC1 (AtGAPC1-SO2H) (enzyme, Arabidopsis thaliana, UniProt P25858 1-338, looked up)
chain: B1 chain
modifications: sulfinic acid or sulfinate (-SO2H or -SO2-) at Cys149

Molecular target: the molecule itself
Assay: dynamic light scattering

| Protein | stoichiometry N |
| --- | --- |
| B1 | 4 |
| B2 | 4 |
| B3 | 4 |
